Like-named read-outs stand apart in the source and are kept apart here.
Legend:
Assay in all cases: SPR; Biacore 3000; GST, GST-CortoCD or GST-HP1CD covalently coupled to a CM5 chip; peptides injected at 1 or 10 µM (binding test) or in series from 1 to 10 µM (kinetics), 5 µL/min, 5 min; 10 mM Hepes pH7.4, 150 mM NaCl, 3 mM EDTA, 0.005% P20; 1:1 Langmuir fit
[1] = biological target: GST-CortoCD (Corto chromodomain fused to GST) (D. melanogaster)
[2] = biological target: GST-HP1CD (HP1 chromodomain fused to GST)
[3] = biological target: GST-CortoCD (Corto chromodomain fused to GST) (D. melanogaster); remark: listed apart in the source

| Substance | Kd [1] [µM] | Kd [2] [µM] | Kd [3] [µM] |
| --- | --- | --- | --- |
| RPL12 peptide dimethylated on lysine 3 | > 200 | – | – |
| RPL12 peptide trimethylated on lysine 3 | 8 | > 200 | < 100 |
| RPL12 peptide trimethylated on lysine 10 | > 200 | > 200 | – |
| RPL12 unmodified peptide | > 200 | > 200 | – |
| histone H3 peptide trimethylated on lysine 9 | – | 0.4 | – |
| histone H3 peptide trimethylated on lysine 27 | – | 0.7 | – |
